T1: human CLDN3 (human, UniProt O15551 1-220)
T1 construct: also called hCLDN3; hCLDN3/BaF
T1 sequence: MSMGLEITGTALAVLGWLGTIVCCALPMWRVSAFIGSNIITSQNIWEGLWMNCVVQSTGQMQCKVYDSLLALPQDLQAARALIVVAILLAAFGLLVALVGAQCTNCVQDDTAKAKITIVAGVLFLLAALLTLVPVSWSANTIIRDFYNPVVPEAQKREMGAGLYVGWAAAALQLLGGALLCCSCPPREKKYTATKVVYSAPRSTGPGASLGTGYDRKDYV

T2: mouse CLDN9 (mouse, UniProt Q9Z0S7 1-217)
T2 construct: also called mCLDN9; mCLDN9/FS293
T2 sequence: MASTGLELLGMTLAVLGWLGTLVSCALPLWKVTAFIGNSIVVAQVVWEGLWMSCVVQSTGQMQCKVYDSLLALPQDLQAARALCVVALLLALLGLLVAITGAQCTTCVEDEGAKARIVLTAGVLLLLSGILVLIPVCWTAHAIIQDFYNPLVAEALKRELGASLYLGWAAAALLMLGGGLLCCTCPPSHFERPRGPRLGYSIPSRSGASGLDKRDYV

T3: mouse CLDN3 (mouse, UniProt Q9Z0G9 1-219)
T3 construct: also called mCLDN3; mCLDN3/FS293
T3 sequence: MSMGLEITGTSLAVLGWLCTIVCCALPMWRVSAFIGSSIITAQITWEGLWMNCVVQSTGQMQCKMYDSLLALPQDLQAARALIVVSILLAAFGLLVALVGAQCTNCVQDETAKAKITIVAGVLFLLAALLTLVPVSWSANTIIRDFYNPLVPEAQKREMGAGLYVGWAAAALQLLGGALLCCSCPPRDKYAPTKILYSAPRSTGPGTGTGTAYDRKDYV

T4: mouse CLDN6 (mouse, UniProt Q9Z262 1-219)
T4 construct: also called mCLDN6; mCLDN6/FS293
T4 chain: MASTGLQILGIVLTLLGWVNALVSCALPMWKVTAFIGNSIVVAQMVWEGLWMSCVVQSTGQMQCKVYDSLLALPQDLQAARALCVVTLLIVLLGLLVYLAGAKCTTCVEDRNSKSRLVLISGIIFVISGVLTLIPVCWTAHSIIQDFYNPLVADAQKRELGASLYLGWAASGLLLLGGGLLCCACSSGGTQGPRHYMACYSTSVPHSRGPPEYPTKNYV

T5: human CLDN4 (human, UniProt O14493 1-209)
T5 construct: also called hCLDN4; hCLDN4/BaF
T5 sequence: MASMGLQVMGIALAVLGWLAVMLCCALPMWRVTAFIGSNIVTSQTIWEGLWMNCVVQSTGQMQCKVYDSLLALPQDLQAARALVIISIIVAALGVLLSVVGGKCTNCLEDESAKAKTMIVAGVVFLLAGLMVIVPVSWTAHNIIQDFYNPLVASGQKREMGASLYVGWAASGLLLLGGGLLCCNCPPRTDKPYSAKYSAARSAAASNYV

T6: mouse CLDN4 (mouse, UniProt O35054 1-210)
T6 construct: also called mCLDN4; mCLDN4/FS293
T6 sequence: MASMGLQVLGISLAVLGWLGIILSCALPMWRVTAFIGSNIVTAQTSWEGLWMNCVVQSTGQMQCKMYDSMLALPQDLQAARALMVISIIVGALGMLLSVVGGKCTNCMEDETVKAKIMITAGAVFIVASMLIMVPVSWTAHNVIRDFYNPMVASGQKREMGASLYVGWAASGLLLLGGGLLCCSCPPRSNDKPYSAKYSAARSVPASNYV

T7: human CLDN9 (human, UniProt O95484 1-217)
T7 construct: also called hCLDN9; hCLDN9/BaF
T7 sequence: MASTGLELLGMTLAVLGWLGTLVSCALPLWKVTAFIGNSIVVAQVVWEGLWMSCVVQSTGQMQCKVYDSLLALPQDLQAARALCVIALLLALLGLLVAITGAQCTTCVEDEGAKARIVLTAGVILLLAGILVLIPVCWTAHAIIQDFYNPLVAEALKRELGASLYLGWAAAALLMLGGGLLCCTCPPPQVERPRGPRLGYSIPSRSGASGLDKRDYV


Legend:
human CLDN3 = biological target: T1, human CLDN3; assay: flow cytometry, FreeStyle 293-F transfectants expressing human CLDN3, anti-human IgG Alexa Fluor 647; MFI
Protocol: (§1) Antibodies were mixed with FreeStyle™ 293-F cells transiently expressed human and mouse CLDN3, 4, 6, and 9 at final concentration of 10 micro g/mL. After 1 hour of incubation, cells were washed by 0.1% BSA containing D-PBS(−), and incubated in 5 micro g/mL of either Goat anti-Human IgG (H+L) Cross-Adsorbed Secondary Antibody, Alexa Fluor 647 (Invitrogen, A21445) or Goat anti-Mouse IgG (H+L) Highly Cross-Adsorbed Secondary Antibody, Alexa Fluor 647 (Invitrogen, A21236), for 1 hour. Cells were then washed with 0.1% BSA containing D-PBS(−), resuspended in 5 micro L of 0.1% BSA containing D-PBS(−), and analyzed by flow cytometer (iQue Screener, intellicyte).

mouse CLDN9 = biological target: T2, mouse CLDN9; assay: flow cytometry, FreeStyle 293-F transfectants expressing mouse CLDN9, anti-human IgG Alexa Fluor 647; MFI
Protocol: as §1

mouse CLDN3 = biological target: T3, mouse CLDN3; assay: flow cytometry, FreeStyle 293-F transfectants expressing mouse CLDN3, anti-human IgG Alexa Fluor 647; MFI
Protocol: as §1

mouse CLDN6 = biological target: T4, mouse CLDN6; assay: flow cytometry, FreeStyle 293-F transfectants expressing mouse CLDN6, 10 micro g/mL antibody, anti-human IgG Alexa Fluor 647; MFI
Protocol: as §1

human CLDN4 [1] = biological target: T5, human CLDN4; assay: flow cytometry, FreeStyle 293-F transfectants expressing human CLDN4, anti-human IgG Alexa Fluor 647; MFI
mouse CLDN4 = biological target: T6, mouse CLDN4; assay: flow cytometry, FreeStyle 293-F transfectants expressing mouse CLDN4, anti-human IgG Alexa Fluor 647; MFI
Protocol: as §1

human CLDN9 = biological target: T7, human CLDN9; assay: flow cytometry, FreeStyle 293-F transfectants expressing human CLDN9, anti-human IgG Alexa Fluor 647; MFI
Protocol: as §1

human CLDN4 [2] = biological target: T5, human CLDN4; assay: flow cytometry on hCLDN4/BaF (Ba/F3 transfectant), Alexa Fluor 488 anti-human IgG; histogram against KLH/TR01
Protocol: Amino acid sequence are highly conserved among CLDN3, CLDN4, CLDN6 and CLDN9. Thus we examined CLDN6 binding specificity by FACS analysis. hCLDN6/BaF, hCLDN3/BaF, hCLDN4/BaF, and hCLDN9/BaF were incubated with CS2201, CS2961, AH05/TR01 and 6PHU3/TR01 at 15 micro g/ml. KLH/TR01 generated in Example 2-3 was used as a staining control. Binding of each antibody was detected with Alexa Fluor 488-conjugated anti human IgG (Invitrogen). Dead cells were separated by eFlour 780 (Invitrogen) staining.

| binding result (human CLDN3) | binding result (mouse CLDN9) | binding result (mouse CLDN3) | binding result (mouse CLDN6) | binding result (human CLDN4 [1]) | binding result (mouse CLDN4) | binding result (human CLDN9) | binding result (human CLDN4 [2]) | Binder |
| --- | --- | --- | --- | --- | --- | --- | --- | --- |
| no binding (tested: 10 micro g/mL) | no binding (tested: 10 micro g/mL) | no binding (tested: 10 micro g/mL) | binds | no binding (tested: 10 micro g/mL) | no binding (tested: 10 micro g/mL) | no binding (tested: 10 micro g/mL) |  | CDA0013/TR01 (bispecific antibody, V domains shown, CDA0013 is rabbit-derived; IgG format by Fab arm exchange, silent Fc; also called anti-CLDN6/CD3 bispecific antibody CDA0013/TR01) VH 1: QSLEESGGRLVTPGTPLTLTCTVSGIDLNNYGVGWVRQPPGKGLEWIGYINALGSAYYASWAKGRFTISRTSTTVDLKITSPTTEDTATYFCARVRYLYIGGGGYWIDRLDLWGQGTLVTVSS VL 1: DVVMTQTPASVEAAVGDTVTIKCQASQSISSCLSWYQQKPGQPPKLLIYYASTLASGVPSRFSGSGSGTEFTLTISGLQCDDAATYYCLGVVSYVSADGGFGGGTEVVVK VH 2: QVQLVESGGGVVQPGGSLRLSCAASGFTFSNAWMHWVRQAPGKGLEWVAQIKDKSQNYATYVAESVKGRFTISRADSKNSIYLQMNSLKTEDTAVYYCRYVHYAAGYGVDIWGQGTTVTVSS VL 2: DIVMTQSPLSLPVTPGEPASISCRSSQPLVHSNRNTYLHWYQQKPGQAPRLLIYKVSNRFSGVPDRFSGSGSGTDFTLKISRVEAEDVGVYYCGQGTQVPYTFGQGTKLEIK |
| no binding (tested: 10 micro g/mL) |  | no binding (tested: 10 micro g/mL) | binds |  | no binding (tested: 10 micro g/mL) |  | no binding (tested: 15 micro g/ml) | 6PHU3/TR01 (bispecific antibody, V domains shown, IgG format by Fab arm exchange, silent Fc; also called anti-CLDN6/CD3 bispecific antibody 6PHU3/TR01) VH 1: EVQLQQSGPELVKPGASMKISCKASGYSFTGYTMNWVKQSHGKNLEWIGLINPYNGGTIYNQKFKGKATLTVDKSSSTAYMELLSLTSEDSAVYYCARDYGFVLDYWGQGTTLTVSS VL 1: DIVLTQSPSIMSVSPGEKVTITCSASSSVSYMHWFQQKPGTSPKLCIYSTSNLASGVPARFSGRGSGTSYSLTISRVAAEDAATYYCQQRSNYPPWTFGGGTKLEIK VH 2: QVQLVESGGGVVQPGGSLRLSCAASGFTFSNAWMHWVRQAPGKGLEWVAQIKDKSQNYATYVAESVKGRFTISRADSKNSIYLQMNSLKTEDTAVYYCRYVHYAAGYGVDIWGQGTTVTVSS VL 2: DIVMTQSPLSLPVTPGEPASISCRSSQPLVHSNRNTYLHWYQQKPGQAPRLLIYKVSNRFSGVPDRFSGSGSGTDFTLKISRVEAEDVGVYYCGQGTQVPYTFGQGTKLEIK |

From patent US20230057904A1 (Chugai, published 2023)
